Where “and” joins values, the source holds several entries; their conditions need not be identical. Identical values can stand only once. Like-named read-outs stand apart in the source and are kept apart here. Blank lines part the entries; values can stand above or below the substance they belong to.
How the values were obtained:
[1] = molecular target: CAT-2200 lambda light chain T131K_V133S; assay: LCCA, SPR
[2] = molecular target: CAT-2200 lambda light chain T131K_V133S; assay: LCCA, SPR; remark: listed apart in the source
[3] = molecular target: CR8071 lambda light chain L1 of design 2830 (E124K_Y178R); assay: SMCA: H1, L1, H2, L2 co-expressed in CHO-3E7
[4] = molecular target: CR8071 lambda light chain L1 (S180E), designs 2816 and 2827; assay: SMCA, System C
[5] = molecular target: CR8071 lambda light chain L1 (S180E), designs 2816 and 2827; assay: SMCA, System C, LC-MS
[6] = molecular target: CR8071 lambda light chain L1, design 2892 (S176K_Y178K); assay: SMCA: H1,L1,H2,L2 co-expressed, protein A, LC-MS
[7] = molecular target: CR8071 lambda light chain L1, design 2994 (E124Q_T131K); assay: SMCA: H1,L1,H2,L2 co-expressed, protein A, LC-MS
[8] = molecular target: CR8071 lambda light chain L1, design 3025 (E124Q_T131R); assay: SMCA: H1,L1,H2,L2 co-expressed, protein A, LC-MS
[9] = molecular target: CR8071 lambda light chain L1, design 3122 (V133D_Y178T); assay: SMCA: H1,L1,H2,L2 co-expressed, protein A, LC-MS
[10] = molecular target: CR8071 lambda light chain L1, design 3878 (K129T_S180E); assay: SMCA: H1,L1,H2,L2 co-expressed, protein A, LC-MS
[11] = molecular target: His-tagged Influenza B Hemagglutinin (B/Brisbane/60/2008) (Influenza B (B/Brisbane/60/2008))
[12] = molecular target: Pertuzumab kappa light chain V133D_Q160E; assay: LCCA, SPR
[13] = molecular target: Pertuzumab kappa light chain V133D; assay: LCCA, SPR
[14] = molecular target: CAT-2200 lambda light chain E124Q_T131K_V133S; assay: LCCA, SPR tag read-out
[15] = molecular target: Pertuzumab kappa light chain Q124E_V133D_L135W; assay: LCCA, SPR tag read-out
[16] = molecular target: Pertuzumab kappa light chain Q124E_V133D; assay: LCCA, SPR
[17] = molecular target: CAT-2200 lambda light chain E124Q_T131K; assay: LCCA, SPR
[18] = molecular target: CAT-2200 lambda light chain E124Q_T131R; assay: LCCA, SPR
[19] = molecular target: Pertuzumab kappa light chain Q124E_V133D; assay: LCCA, SPR; remark: listed apart in the source
[20] = molecular target: Pertuzumab kappa light chain, wild type (L2), N-terminal HA tag; assay: LCCA, SPR of light chain tags
[21] = molecular target: Pertuzumab kappa light chain L135A (L2), N-terminal HA tag; assay: LCCA, SPR of light chain tags
[22] = molecular target: CAT-2200 lambda light chain T116F_S176F (L1), N-terminal FLAG tag; assay: LCCA, SPR of light chain tags
[23] = molecular target: Pertuzumab kappa light chain, wild type (L2), N-terminal HA tag; assay: LCCA, SPR of light chain tags; remark: listed apart in the source
[24] = molecular target: Pertuzumab kappa light chain L135A (L2), N-terminal HA tag; assay: LCCA, SPR of light chain tags; remark: listed apart in the source
[25] = molecular target: Pertuzumab kappa light chain L135A_T178F (L2), N-terminal HA tag; assay: LCCA, SPR of light chain tags
[26] = molecular target: Pertuzumab kappa light chain T178F (L2), N-terminal HA tag; assay: LCCA, SPR of light chain tags
[27] = molecular target: Pertuzumab light chain (kappa) V133G_S176D_T180E, HA-tagged; assay: LCCA
[28] = molecular target: Pertuzumab light chain (kappa) V133G_S176D_T180E, HA-tagged; assay: LCCA; remark: listed apart in the source
[29] = molecular target: Pertuzumab light chain (kappa) V133G_S176D_T178E, HA-tagged; assay: LCCA
[30] = molecular target: Pertuzumab light chain (kappa) V133G_S176D_T180E, HA-tagged; assay: LCCA; remark: listed apart in the source
[31] = molecular target: Pertuzumab light chain (kappa) V133G_S176D_T178E, HA-tagged; assay: LCCA; remark: listed apart in the source
[32] = molecular target: Pertuzumab light chain (kappa) Q124E_V133D, HA-tagged; assay: LCCA
[33] = molecular target: CAT-2200 light chain (lambda) E124Q_T131K, FLAG-tagged; assay: LCCA
[34] = molecular target: CAT-2200 light chain (lambda) E124Q_T131R, FLAG-tagged; assay: LCCA
[35] = molecular target: Pertuzumab light chain (kappa) Q124E_V133D, HA-tagged; assay: LCCA; remark: listed apart in the source
[36] = molecular target: SGN-CD19a kappa light chain L2 of design 2830 (T178E_T180E); assay: SMCA: H1, L1, H2, L2 co-expressed in CHO-3E7
[37] = molecular target: SGN-CD19a kappa light chain L2, design 3025 (S131D_V133G_T178F); assay: SMCA: H1,L1,H2,L2 co-expressed, protein A, LC-MS
[38] = molecular target: SGN-CD19a kappa light chain L2, design 3025 (S131D_V133G_T178F); assay: SMCA: H1,L1,H2,L2 co-expressed, protein A, LC-MS; remark: listed apart in the source
[39] = molecular target: SGN-CD19a kappa light chain L2, design 3122 (S176K_T178K); assay: SMCA: H1,L1,H2,L2 co-expressed, protein A, LC-MS
[40] = molecular target: SGN-CD19a kappa light chain L2, design 3122 (S176K_T178K); assay: SMCA: H1,L1,H2,L2 co-expressed, protein A, LC-MS; remark: listed apart in the source
[41] = molecular target: SGN-CD19a kappa light chain L2, design 3878 (Q124R_Q160K_T178R); assay: SMCA: H1,L1,H2,L2 co-expressed, protein A, LC-MS
[42] = molecular target: SGN-CD19a kappa light chain L2, design 3878 (Q124R_Q160K_T178R); assay: SMCA: H1,L1,H2,L2 co-expressed, protein A, LC-MS; remark: listed apart in the source
[43] = molecular target: SGN-CD19a kappa light chain L2, designs 2892 and 2994 (Q124E_V133D); assay: SMCA: H1,L1,H2,L2 co-expressed, protein A, LC-MS
[44] = molecular target: SGN-CD19a kappa light chain L2, designs 2892 and 2994 (Q124E_V133D); assay: SMCA: H1,L1,H2,L2 co-expressed, protein A, LC-MS; remark: listed apart in the source
[45] = molecular target: SGN-CD19a kappa light chain L2, designs 2892 and 2994 (Q124E_V133D); assay: SMCA: H1,L1,H2,L2 co-expressed, protein A, LC-MS; remark: listed apart in the source
[46] = molecular target: SGN-CD19a kappa light chain L2, designs 2892 and 2994 (Q124E_V133D); assay: SMCA: H1,L1,H2,L2 co-expressed, protein A, LC-MS; remark: listed apart in the source

H1L1:H1L2 normalized median scalar value ln(r1/f1) [1]: 0.41
H1L1:H1L2 normalized median scalar value ln(r1/f1) [2]: 0.58
Substance: CAT-2200 Fab heavy chain L143D_K145T_Q179E

% H1L1 Pairing [3]: 28%
Change in % H1L1 Pairing with respect to wild type [3]: -20.4%
Substance: CR8071 heavy chain H1 of design 2830 (L143E_K145T_Q179E), full-length with heterodimeric IgG1 Fc

% H1L1 Pairing [4]: 99.3%
Change in % H1L1 Pairing with respect to wild type [5]: 17%
Substance: CR8071 heavy chain H1, design 2816 (Q179K)

% H1L1 Pairing [4]: 98.2%
Change in % H1L1 Pairing with respect to wild type [5]: 15.9%
Substance: CR8071 heavy chain H1, design 2827 (S186R)

% H1L1 Pairing [6]: 41.5%
Change in % H1L1 Pairing with respect to wild type [6]: -6.9%
Substance: CR8071 heavy chain H1, design 2892 (K145T_V177D_S188D)

% H1L1 Pairing [7]: 26.3%
Change in % H1L1 Pairing with respect to wild type [7]: -22.1%
Substance: CR8071 heavy chain H1, design 2994 (L143E_K145T_Q179E)

% H1L1 Pairing [8]: 43.9%
Change in % H1L1 Pairing with respect to wild type [8]: -4.5%
Substance: CR8071 heavy chain H1, design 3025 (L143D_K145T)

% H1L1 Pairing [9]: 65.8%
Change in % H1L1 Pairing with respect to wild type [9]: -16.5%
Substance: CR8071 heavy chain H1, design 3122 (S186K_S188T)

% H1L1 Pairing [10]: 99.3%
Change in % H1L1 Pairing with respect to wild type [10]: 17%
Substance: CR8071 heavy chain H1, design 3878 (Q179K)

Substance: CR8071 wild type one-armed antibody (OAA), FLAG-tagged light chain
Kd [11]: 0.332 nM

Substance: CR8071 wild type one-armed antibody (OAA), no tags
Kd [11]: 0.385 nM and 0.379 nM

H2L2:H2L1 normalized median ratio [1]: 28%
H2L2:H2L1 normalized median scalar value ln(r1/f1) [12]: 1.5
H2L2:H2L1 normalized median ratio [13]: 72%
H2L2:H2L1 normalized median scalar value ln(r1/f1) [13]: 0.92
H2L2:H2L1 normalized median ratio [14]: 16%
H2L2:H2L1 median scalar value [15]: 1.69 ln(ratio)
H2L2:H2L1 normalized median ratio [15]: 84%
Substance: Pertuzumab Fab heavy chain L143I_S186K

H2L2:H2L1 normalized median ratio [16]: 92%
H2L2:H2L1 normalized median scalar value ln(r1/f1) [16]: 2.48
H2L2:H2L1 normalized median ratio [17]: 8%
H2L2:H2L1 normalized median ratio [18]: 9%
H2L2:H2L1 normalized median ratio [19]: 91%
H2L2:H2L1 normalized median scalar value ln(r1/f1) [19]: 2.3
Substance: Pertuzumab Fab heavy chain L143K

H2L2:H2L1 normalized median ratio [20]: 65%
H2L2:H2L1 normalized median scalar value ln(r1/f1) [20]: 0.6
H2L2:H2L1 normalized median ratio [21]: 42%
H2L2:H2L1 normalized median scalar value ln(r1/f1) [21]: -0.34
H2L2:H2L1 normalized median ratio [22]: 29%
H2L2:H2L1 normalized median ratio [23]: 62%
H2L2:H2L1 normalized median scalar value ln(r1/f1) [23]: 0.47
H2L2:H2L1 normalized median ratio [24]: 44%
H2L2:H2L1 normalized median scalar value ln(r1/f1) [24]: -0.26
H2L2:H2L1 normalized median ratio [25]: 60%
H2L2:H2L1 normalized median scalar value ln(r1/f1) [25]: 0.41
H2L2:H2L1 normalized median ratio [26]: 71%
H2L2:H2L1 normalized median scalar value ln(r1/f1) [26]: 0.9
Substance: Pertuzumab Fab heavy chain V190F (H2), ABD2-His6 tagged

H2L2:H2L1 normalized median scalar value ln(r1/f1) [27]: 0.63
H2L2:H2L1 normalized median scalar value ln(r1/f1) [28]: 0.97
H2L2:H2L1 normalized median scalar value ln(r1/f1) [29]: 0.69
H2L2:H2L1 normalized median scalar value ln(r1/f1) [30]: 0.95
H2L2:H2L1 normalized median scalar value ln(r1/f1) [31]: 0.77
Substance: Pertuzumab heavy chain Fab construct L124R_Q179K

H2L2:H2L1 normalized median scalar value ln(r1/f1) [27]: 1.21
H2L2:H2L1 normalized median scalar value ln(r1/f1) [28]: 1.47
H2L2:H2L1 normalized median scalar value ln(r1/f1) [29]: 1.18
H2L2:H2L1 normalized median scalar value ln(r1/f1) [30]: 1.5
H2L2:H2L1 normalized median scalar value ln(r1/f1) [31]: 1.04
Substance: Pertuzumab heavy chain Fab construct L124R_S186R

H2L2:H2L1 normalized median ratio, H2L2 share [32]: 91%
H2L2:H2L1 normalized median scalar value ln(r1/f1) [32]: 2.3
H2L2:H2L1 normalized median ratio (H2L1 share) [33]: 8%
H2L2:H2L1 normalized median ratio (H2L1 share) [34]: 9%
H2L2:H2L1 normalized median ratio, H2L2 share [35]: 92%
H2L2:H2L1 normalized median scalar value ln(r1/f1) [35]: 2.48
Substance: Pertuzumab heavy chain Fab construct L143K

H2L2:H2L1 normalized median ratio, H2L2 share [32]: 96%
H2L2:H2L1 normalized median scalar value ln(r1/f1) [32]: 3.06
H2L2:H2L1 normalized median ratio (H2L1 share) [34]: 4%
Substance: Pertuzumab heavy chain Fab construct L143R

% H2L2 Pairing [36]: 99.6%
Change in % H2L2 Pairing with respect to wild type [36]: 20%
Substance: SGN-CD19a heavy chain H2 of design 2830 (S186R), full-length with heterodimeric IgG1 Fc

% H2L2 Pairing [37]: 87.9%
Change in % H2L2 Pairing with respect to wild type [37]: 33.7%
% H2L2 Pairing [38]: 99.7%
Change in % H2L2 Pairing with respect to wild type [38]: 20.1%
Substance: SGN-CD19a heavy chain H2, design 3025 (S188K)

% H2L2 Pairing [39]: 89.7%
Change in % H2L2 Pairing with respect to wild type [39]: 52.1%
% H2L2 Pairing [40]: 99.8%
Change in % H2L2 Pairing with respect to wild type [40]: 39.9%
Substance: SGN-CD19a heavy chain H2, design 3122 (K145T_V177D_S188D)

% H2L2 Pairing [41]: 28.7%
Change in % H2L2 Pairing with respect to wild type [41]: -8.9%
% H2L2 Pairing [42]: 67.4%
Change in % H2L2 Pairing with respect to wild type [42]: 7.5%
Substance: SGN-CD19a heavy chain H2, design 3878 (L143E_K145T_S188L)

% H2L2 Pairing [43]: 99.6%
Change in % H2L2 Pairing with respect to wild type [43]: 20%
% H2L2 Pairing [44]: 99.7%
Change in % H2L2 Pairing with respect to wild type [44]: 20.1%
% H2L2 Pairing [45]: 94.3%
Change in % H2L2 Pairing with respect to wild type [45]: 40.1%
% H2L2 Pairing [46]: 99.2%
Change in % H2L2 Pairing with respect to wild type [46]: 45%
Substance: SGN-CD19a heavy chain H2, designs 2892 and 2994 (L143K)

Source: US20190338048A1
